# Measurements from the Immune Epitope Database (IEDB).
# Target: HLA-A*02:03
# Test: IEDB peptide-MHC binding, cellular MHC/competitive/fluorescence; ≥ and ≤ were set here for values at or beyond the usual limits of such assays
# Settings: source organism: Vaccinia virus WR
row,Sequence,IC50 [µM]
1,KIQLFSDFTI,≥ 70
2,KLTKDRKML,36.4
3,KTEHCDDFMT,37.7
4,LAEYIRHRNT,14
5,LAIKNYYRKT,7.18
6,LAYYNSCML,15.5
7,LIISTDQDT,≥ 70
8,LIQYRQQLEL,19.5
9,LLTHGADPNA,7.51
10,LTDVEKRIL,28.5
11,LTGNNTITT,5.62
12,LTNKKYRCMA,5.4
13,LTPFEKEFT,20.9
14,LVSKHWELT,14.9
15,MQLKIDKLT,60.1
16,NILGGVLHT,20.6
17,NINFNNSSII,13.3
18,NLCKYLRGHT,8.04
19,NMDKVSAQNI,16.8
20,NVDVGCLLT,14
21,PAHLINKLL,6.31
22,PAMSTYSDI,20.6
23,PANINDKQIM,43.1
24,PLHIVCSKTV,5.27
25,PLIISTDQDT,35.6
26,PLKDVERLQM,44
27,PLPSLEYGA,18.9

# Target: HLA-A*02:06
# Test: as above
# Settings: source organism: Hepacivirus hominis
row,Sequence,IC50 [µM]
1,LLGLLLLCV,19.1

# Same assay, conditions: source organism: Influenza A virus
row,Sequence,IC50 [µM]
1,IAYERMCNIL,7.91
2,ILLRAFTEEGA,26.3
3,LLLVVQALR,8.59
4,NLPFDKTTIMA,≥ 70
5,NTTIEKEI,≥ 70
6,NVKDYSIV,≥ 70
7,NVRGSGMRILV,54.7
8,PACVYGLA,≥ 70
9,PACVYGPA,≥ 70
10,PAEMLANI,≥ 70
11,PAEMLASI,≥ 70
12,PAHKSQLV,≥ 70
13,PLIRHENRMVL,≥ 70

# Same assay, conditions: source organism: Mammarenavirus brazilense
row,Sequence,IC50 [µM]
1,ICFWSTLFFT,34.9

# Same assay, conditions: source organism: Mammarenavirus guanaritoense
row,Sequence,IC50 [µM]
1,KNAGYLVGR,≥ 70

# Same assay, conditions: source organism: Vaccinia virus WR
row,Sequence,IC50 [µM]
1,GVEVRYIDI,10.2
2,HAKYMVTDKT,64.9
3,IAEYIAGLKI,10.2
4,IASAPQQLCT,8.31
5,IILFQNNDI,12.1
6,IIRVTTELNI,13.7
7,ITDQTVNICI,10.4
8,ITETIPIGM,7.69
9,ITGNKVKTEL,≥ 70
10,KAMHDKKIDI,26.4
11,KIQLFSDFTI,≥ 70
12,KLTKDRKML,≥ 70
13,KTEHCDDFMT,11.6
14,LAEYIRHRNT,≥ 70
15,LAIKNYYRKT,≥ 70
16,LAYYNSCML,21.5
17,LIISTDQDT,≥ 70
18,LIQYRQQLEL,52.9
19,LLTHGADPNA,15.7

row,Sequence,IC50 [µM]
1,LTDVEKRIL,≥ 70
2,LTGNNTITT,8.69
3,LTNKKYRCMA,≥ 70
4,LTPFEKEFT,≥ 70
5,LVSKHWELT,≥ 70
6,MQLKIDKLT,59.7
7,NILGGVLHT,9.97
8,NINFNNSSII,30.1
9,NLCKYLRGHT,≥ 70
10,NMDKVSAQNI,≥ 70
11,NVDVGCLLT,64.9
12,PAHLINKLL,42.5
13,PAMSTYSDI,≥ 70
14,PANINDKQIM,10.9
15,PLHIVCSKTV,27
16,PLIISTDQDT,47.4
17,PLKDVERLQM,37.4
18,PLPSLEYGA,42.5

# Target: HLA-A*68:02
# Test: as above
# Settings: source organism: Hepacivirus hominis
row,Sequence,IC50 [µM]
1,LLGLLLLCV,≥ 70

# Same assay, conditions: source organism: Influenza A virus
row,Sequence,IC50 [µM]
1,IAYERMCNIL,24.6
2,ILLRAFTEEGA,≥ 70
3,LLLVVQALR,60.4
4,NLPFDKTTIMA,11
5,NTTIEKEI,≥ 70
6,NVKDYSIV,11.3
7,NVRGSGMRILV,11.2
8,PACVYGLA,52.3
9,PACVYGPA,≥ 70
10,PAEMLANI,≥ 70
11,PAEMLASI,≥ 70
12,PAHKSQLV,≥ 70
13,PLIRHENRMVL,≥ 70

# Same assay, conditions: source organism: Mammarenavirus brazilense
row,Sequence,IC50 [µM]
1,ICFWSTLFFT,47.6

# Same assay, conditions: source organism: Mammarenavirus guanaritoense
row,Sequence,IC50 [µM]
1,KNAGYLVGR,≥ 70

# Same assay, conditions: source organism: Vaccinia virus WR
row,Sequence,IC50 [µM]
1,GVEVRYIDI,≥ 70
2,HAKYMVTDKT,≥ 70
3,IAEYIAGLKI,5.85
4,IASAPQQLCT,16.4
5,IILFQNNDI,23.8
6,IIRVTTELNI,16.4
7,ITDQTVNICI,51.2
8,ITETIPIGM,6.13
9,ITGNKVKTEL,≥ 70
10,KAMHDKKIDI,≥ 70
11,KIQLFSDFTI,≥ 70
12,KLTKDRKML,≥ 70
13,KTEHCDDFMT,≥ 70
14,LAEYIRHRNT,52.4
15,LAIKNYYRKT,39.7
16,LAYYNSCML,13.3
17,LIISTDQDT,≥ 70
18,LIQYRQQLEL,≥ 70
19,LLTHGADPNA,≥ 70

row,Sequence,IC50 [µM]
1,LTDVEKRIL,≥ 70
2,LTGNNTITT,8.24
3,LTNKKYRCMA,16.6
4,LTPFEKEFT,≥ 70
5,LVSKHWELT,≥ 70
6,MQLKIDKLT,≥ 70
7,NILGGVLHT,≥ 70
8,NINFNNSSII,6.97
9,NLCKYLRGHT,12.3
10,NMDKVSAQNI,37.3
11,NVDVGCLLT,≥ 70
12,PAHLINKLL,11.2
13,PAMSTYSDI,69.8
14,PANINDKQIM,≥ 70
15,PLHIVCSKTV,9.35
16,PLIISTDQDT,≥ 70
17,PLKDVERLQM,≥ 70
18,PLPSLEYGA,30.9
